Measured values taken from US20090180995A1, “NOVEL ANTICOAGULANT POLYPEPTIDES AND COMPLEX” (National University of Singapore, priority 2005, published 2009).

T1: FVIIa (Homo sapiens, UniProt P08709)
T1 construct: from tissue; host or cells: human plasma
T1 sequence (P08709 61-212 limits assumed): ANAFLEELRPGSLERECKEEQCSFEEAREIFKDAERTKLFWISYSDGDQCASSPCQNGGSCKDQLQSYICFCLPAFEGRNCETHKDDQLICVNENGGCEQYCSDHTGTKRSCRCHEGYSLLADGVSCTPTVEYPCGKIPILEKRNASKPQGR
T1 sequence (P08709 213-466 limits assumed): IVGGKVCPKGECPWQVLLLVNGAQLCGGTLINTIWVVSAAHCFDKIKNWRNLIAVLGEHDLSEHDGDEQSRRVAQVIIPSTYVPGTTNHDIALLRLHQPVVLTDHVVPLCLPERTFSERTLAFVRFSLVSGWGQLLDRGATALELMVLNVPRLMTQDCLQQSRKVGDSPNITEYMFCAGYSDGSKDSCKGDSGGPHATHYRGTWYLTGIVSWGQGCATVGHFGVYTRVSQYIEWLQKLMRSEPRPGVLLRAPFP

B1: hemextin B (protein)
chain: LKCKNKVVPFLKCKNKVVPFLCYKMTLKKVPKIPIKRGCTDACPKSSLLVNVMCCKTDKCN
B2: hemextin A (protein)
chain: LKCKNKLVPFLSKTCPEGKNLCYKMTMLKMPKIPIKRGCTDACPKSSLLVKVVCCNKDKCN
B3: hemextin AB complex: synergistic 1:1 tetrameric complex of hemextin A and hemextin B, reconstituted from equimolar proteins (protein)
chain 1: B2 chain
chain 2: B1 chain

Experiments:
TF-FVIIa complex = target: T2, TF-FVIIa complex (Homo sapiens, UniProt P08709); assay: Reconstituted extrinsic tenase complex, FXa formation; type: biochemical; details: for inhibition of extrinsic tenase activity: 10 pM FVIIa, 70 nM TF, 30 nM FX, FXa by S-2222
T2 construct: tissue Dade Behring Marburg, Germany (TF, Innovin only); host or cells: human plasma (FVIIa)
T2 sequence (P13726 33-295 partner, one chain of several): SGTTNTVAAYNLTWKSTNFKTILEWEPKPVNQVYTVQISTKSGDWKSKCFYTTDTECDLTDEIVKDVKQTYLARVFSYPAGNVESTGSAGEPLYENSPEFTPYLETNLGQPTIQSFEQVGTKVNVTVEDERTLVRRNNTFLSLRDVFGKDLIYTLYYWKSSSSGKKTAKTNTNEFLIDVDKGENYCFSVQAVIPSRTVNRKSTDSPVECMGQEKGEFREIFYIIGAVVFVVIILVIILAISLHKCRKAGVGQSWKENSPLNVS
Description: Reconstitution of the extrinsic tenase complex—TF-FVIIa complex was reconstituted by incubating 10 pM FVIIa with 70 nM of recombinant human TF (Innovin) in Buffer A (20 mM HEPES, 150 mM NaCl, 10 mM CaCl2 and 1% BSA, pH 7.4) for 10 min at 37° C. Then FX was added to the mixture to obtain a final concentration of 30 nM. The activation was stopped by the addition 50 μl of stop buffer (20 mM HEPES, 150 mM NaCl, 50 mM EDTA and 1% BSA, pH 7.4) to 50 μl aliquots of the reaction mixture after 15 min incubation. FXa formed was measured by the hydrolysis 1 mM of S-2222 in Buffer A in a microtiter plate reader at 405 nm. The inhibitory effect on extrinsic tenase activity was determined by adding the individual proteins or the anticoagulant complex 15 min prior to FX addition.

FVIIa = target: T1, FVIIa; assay: FVIIa amidolytic activity; type: biochemical; details: absence of sTF; for inhibition of FVIIa amidolytic activity: FVIIa (300 nM)/S-2288
Description: (§1) Serine protease specificity—The selectivity profile of anticoagulant proteins and their complex was examined against 12 serine proteases—procoagulant serine proteases (FIXa, FXa, FXIa, FXIIa, plasma kallikrein and thrombin), anticoagulant serine protease (APC), fibrinolytic serine proteases (urokinase, t-PA and plasmin) and classical serine proteases (trypsin and chymotrypsin). Various concentrations of purified hemextin A/hemextin B and reconstituted hemextin AB complex were preincubated with each of the enzymes (Table 1) for a period of five minutes at a temperature of 37° C., followed by the addition of appropriate chromogenic substrate.
(§2) For studies with FXIa, kallikrein and urokinase, the appropriate substrates were determined prior to their screening against the inhibitors. For FXIa, the Vmax for the amidolytic activity corresponding to the chromogenic substrates S-2266, S-2302 and S-2366 was determined. S-2302 was the substrate with the highest Vmax and thus was used in the screening studies. Similar studies with kallikrein and urokinase were carried out with substrates S-2266, S-2302 and S-2288 for kallikrein and S-2444 and S-2484 for urokinase. In a total volume of 200 μl in the individual wells of the microtiter plate, final concentrations of FVIIa (300 nM)/S-2288, FVIIa-sTF (30 nM)/S-2288, FXa (0.75 nM)/S-2765, α-thrombin (0.66 nM)/S-2238, plasmin (2 nM)/S-2366, FIXa (3 μM)/spectrozyme®fIXa, FXIa (0.34 nM)/S-2366, FXIIa (0.4 nM)/S-2302, recombinant tissue plasminogen activator (80 nM)/S-2288, activated protein C (0.34 nM)/S-2366, urokinase/S-2444, plasma kallikrein (0.4 nM)/S-2302, trypsin (2.17 nM)/S-2222 and chymotrypsin (0.4 nM)/S-2586 were measured. The kinetic rate of substrate hydrolysis (mOD/min) was measured over 5 min.

FXa = FXa (Homo sapiens, UniProt P00742); assay: Serine protease specificity, FXa; type: biochemical; details: FXa (0.75 nM)/S-2765
Sequence of FXa (P00742 41-179 limits assumed): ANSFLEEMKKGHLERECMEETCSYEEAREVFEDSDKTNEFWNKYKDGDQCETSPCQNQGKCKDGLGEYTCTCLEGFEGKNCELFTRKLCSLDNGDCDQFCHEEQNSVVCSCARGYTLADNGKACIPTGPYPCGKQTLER
Sequence of FXa (P00742 235-488 limits assumed): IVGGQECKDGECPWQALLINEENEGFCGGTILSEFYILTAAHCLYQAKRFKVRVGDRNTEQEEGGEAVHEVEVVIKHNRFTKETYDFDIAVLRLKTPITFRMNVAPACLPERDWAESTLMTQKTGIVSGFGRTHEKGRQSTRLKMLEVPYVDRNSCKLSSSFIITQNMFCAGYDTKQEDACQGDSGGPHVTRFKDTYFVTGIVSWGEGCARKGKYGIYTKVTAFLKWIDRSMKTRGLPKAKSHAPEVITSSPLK
Description: as §1, §2

Factor XIa = Factor XIa (Homo sapiens, UniProt P03951); assay: Serine protease specificity, FXIa; type: biochemical; details: FXIa (0.34 nM)
Sequence of Factor XIa (P03951 388-625 limits assumed): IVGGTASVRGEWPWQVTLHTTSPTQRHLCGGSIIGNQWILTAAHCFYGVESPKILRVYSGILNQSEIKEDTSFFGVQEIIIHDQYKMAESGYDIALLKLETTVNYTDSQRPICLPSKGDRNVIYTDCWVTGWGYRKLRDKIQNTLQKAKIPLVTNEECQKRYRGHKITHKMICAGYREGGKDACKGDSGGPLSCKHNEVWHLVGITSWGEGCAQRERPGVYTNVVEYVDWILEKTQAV
Sequence of Factor XIa (P03951 19-387 limits assumed): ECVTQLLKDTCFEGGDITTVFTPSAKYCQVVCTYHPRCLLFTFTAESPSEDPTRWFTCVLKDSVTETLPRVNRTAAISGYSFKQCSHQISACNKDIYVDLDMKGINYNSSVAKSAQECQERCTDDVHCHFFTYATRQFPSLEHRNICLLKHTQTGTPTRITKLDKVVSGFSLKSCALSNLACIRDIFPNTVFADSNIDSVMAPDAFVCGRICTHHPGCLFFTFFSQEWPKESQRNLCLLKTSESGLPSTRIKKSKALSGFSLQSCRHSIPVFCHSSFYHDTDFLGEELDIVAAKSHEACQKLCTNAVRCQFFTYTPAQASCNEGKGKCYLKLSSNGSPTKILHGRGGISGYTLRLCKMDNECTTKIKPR
Description: as §1, §2

Factor XIIa = assay: Serine protease specificity, FXIIa; type: biochemical; details: FXIIa (0.4 nM)/S-2302
Sequence of Factor XIIa (P00748 373-615 limits assumed): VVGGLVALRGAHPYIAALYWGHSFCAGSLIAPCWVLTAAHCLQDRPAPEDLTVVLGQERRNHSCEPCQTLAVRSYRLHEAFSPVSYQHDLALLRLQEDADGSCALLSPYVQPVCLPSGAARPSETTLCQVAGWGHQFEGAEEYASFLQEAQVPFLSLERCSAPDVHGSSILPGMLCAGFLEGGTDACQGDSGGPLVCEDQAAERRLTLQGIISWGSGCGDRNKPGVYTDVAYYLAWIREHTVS
Description: as §1, §2

t-PA = t-PA (Homo sapiens, UniProt P00750); assay: Serine protease specificity, t-PA; type: biochemical; details: recombinant tissue plasminogen activator (80 nM)/S-2288
Sequence of t-PA (P00750 36-562, species assumed): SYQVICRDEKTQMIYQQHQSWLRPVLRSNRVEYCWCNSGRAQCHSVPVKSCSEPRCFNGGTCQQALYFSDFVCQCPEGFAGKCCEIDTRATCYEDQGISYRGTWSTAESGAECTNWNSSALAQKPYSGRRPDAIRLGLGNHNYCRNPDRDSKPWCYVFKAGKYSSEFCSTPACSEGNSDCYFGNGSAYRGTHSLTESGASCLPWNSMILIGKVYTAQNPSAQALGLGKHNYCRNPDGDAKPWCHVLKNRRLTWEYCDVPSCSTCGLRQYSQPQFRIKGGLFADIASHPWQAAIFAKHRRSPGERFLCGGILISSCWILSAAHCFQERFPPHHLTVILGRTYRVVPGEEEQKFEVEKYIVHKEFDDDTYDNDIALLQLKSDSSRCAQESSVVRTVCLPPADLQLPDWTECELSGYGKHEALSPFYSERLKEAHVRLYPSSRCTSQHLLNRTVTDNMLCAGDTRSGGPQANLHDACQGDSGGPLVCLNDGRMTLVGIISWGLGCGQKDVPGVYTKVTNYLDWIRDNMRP
Description: as §1, §2

Urokinase = Urokinase (Homo sapiens, UniProt P00749); assay: Serine protease specificity, urokinase; type: biochemical; details: urokinase/S-2444
Description: as §1, §2

Plasmin = Plasmin (Homo sapiens, UniProt P00747); assay: Serine protease specificity, plasmin; type: biochemical; details: plasmin (2 nM)
Sequence of Plasmin (P00747 581-810 limits assumed, species assumed): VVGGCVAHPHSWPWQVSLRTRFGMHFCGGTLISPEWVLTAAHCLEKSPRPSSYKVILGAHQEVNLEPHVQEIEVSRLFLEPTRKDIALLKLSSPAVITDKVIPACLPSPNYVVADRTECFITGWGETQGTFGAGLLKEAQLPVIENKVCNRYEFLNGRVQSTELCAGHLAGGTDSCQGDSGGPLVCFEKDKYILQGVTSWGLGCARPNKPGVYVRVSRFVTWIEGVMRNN
Sequence of Plasmin (P00747 97-580 limits assumed, species assumed): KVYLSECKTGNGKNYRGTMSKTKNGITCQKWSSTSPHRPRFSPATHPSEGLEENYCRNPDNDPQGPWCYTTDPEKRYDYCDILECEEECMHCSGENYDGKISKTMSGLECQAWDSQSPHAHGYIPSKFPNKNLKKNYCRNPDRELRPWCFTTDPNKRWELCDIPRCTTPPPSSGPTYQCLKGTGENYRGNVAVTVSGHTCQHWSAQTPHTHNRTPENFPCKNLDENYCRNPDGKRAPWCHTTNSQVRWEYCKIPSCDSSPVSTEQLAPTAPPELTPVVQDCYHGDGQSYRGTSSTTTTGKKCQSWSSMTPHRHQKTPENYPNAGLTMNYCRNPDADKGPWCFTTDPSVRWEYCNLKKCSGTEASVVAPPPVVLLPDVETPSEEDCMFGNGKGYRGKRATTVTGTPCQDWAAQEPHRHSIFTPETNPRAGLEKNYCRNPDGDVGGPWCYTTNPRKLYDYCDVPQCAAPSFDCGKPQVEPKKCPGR
Description: as §1, §2

Trypsin = assay: Serine protease specificity, trypsin; type: biochemical; details: trypsin (2.17 nM)/S-2222
Description: as §1, §2

[1] = Molecular diameter by GEMMA; type: physicochemical; details: gas phase, 20 mM ammonium acetate (pH 7.4)
Description: (A) Gas Phase Electrophoretic Mobility Macromolecule Analyzer (GEMMA)—The molecular diameters in the gas phase were determined with GEMMA (71, 72) using a nano-differential mobility analyzer, model 3980 (TSI, St Paul, Minn., USA), and a standard CPC type 3025 (TSI, St Paul, Minn., USA). The instrument was operated in the ‘cone jet’ mode with an operating voltage between 2.5 and 3.0 kV, resulting in currents from 200 to 300 nA. Filtered ambient air at 2 l/min and a concentric sheath gas flow of filtered CO2 at 0.1/min was used to stabilize the electrospray against corona discharge. Sample solutions of hemextin A (4 ng/ml) and hemextin B (4 ng/ml) were prepared in 20 mM ammonium acetate (pH 7.4) immediately prior to the experiment. Hemextin AB complex (4.5 ng/ml) was reconstituted in the above buffer and was incubated at 37° C. for 10 min. Another three-finger protein, toxin C isolated and purified from the same venom was used as a control in the GEMMA experiments. The samples were infused into the electrospray chamber with an inlet flow rate of 100 nl/min. Twenty scans over the whole EM diameter range (0 to 25 nm) were recorded and averaged to obtain a GEMMA spectrum. No smoothing algorithm was applied for the data presentation.

Molecule | inhibition of extrinsic tenase activity (TF-FVIIa complex) | inhibitory activity of hemextin A on extrinsic tenase with increasing hemextin B (TF-FVIIa complex; hemextin A constant at 50 μM) | inhibition of FVIIa amidolytic activity (FVIIa) | Observed Effect, FXa amidolytic activity (FXa) | Observed Effect, Factor XIa amidolytic activity (Factor XIa) | Observed Effect, Factor XIIa amidolytic activity (Factor XIIa) | Observed Effect, t-PA amidolytic activity (t-PA) | Observed Effect, urokinase amidolytic activity (Urokinase) | Observed Effect, plasmin amidolytic activity (Plasmin) | Observed Effect, trypsin amidolytic activity (Trypsin) | apparent molecular diameter (GEMMA) [1] | IC50 (FVIIa)
B1 | did not mediate any inhibitory activity | increases with the increasing concentrations of hemextin B until the ratio reached 1:1 | did not exhibit any inhibitory activity | no inhibitory activity | no inhibitory activity | no inhibitory activity | no inhibitory activity | no inhibitory activity | no inhibitory activity | no inhibitory activity | 8.82±0.42 nm | –
B2 | mild inhibitory activity at higher concentrations | – | potent inhibitory activity | no inhibitory activity | no inhibitory activity | no inhibitory activity | no inhibitory activity | no inhibitory activity | no inhibitory activity | no inhibitory activity | 10.2±0.38 nm | ~105 nM
B3 | completely inhibited | – | potent inhibitory activity | no inhibitory activity | no inhibitory activity | no inhibitory activity | no inhibitory activity | no inhibitory activity | no inhibitory activity | no inhibitory activity | 16.3±0.43 nm | ~105 nM
